Measured values as given in ChEMBL document CHEMBL2074046, “Selectivity of the polyspecific cation transporter rOCT1 is changed by mutation of aspartate 475 to glutamate” (Mol Pharmacol, 1999).

Key:
[1] = target: T1, Solute carrier family 22 member 1 (Rattus norvegicus, UniProt Q63089); assay: TP_TRANSPORTER: inhibition of MPP+ uptake (MPP+: 0.1 uM) in OCT1-expressing HEK293 cells; type: functional, cell-based
T1 sequence (Q63089 whole entry): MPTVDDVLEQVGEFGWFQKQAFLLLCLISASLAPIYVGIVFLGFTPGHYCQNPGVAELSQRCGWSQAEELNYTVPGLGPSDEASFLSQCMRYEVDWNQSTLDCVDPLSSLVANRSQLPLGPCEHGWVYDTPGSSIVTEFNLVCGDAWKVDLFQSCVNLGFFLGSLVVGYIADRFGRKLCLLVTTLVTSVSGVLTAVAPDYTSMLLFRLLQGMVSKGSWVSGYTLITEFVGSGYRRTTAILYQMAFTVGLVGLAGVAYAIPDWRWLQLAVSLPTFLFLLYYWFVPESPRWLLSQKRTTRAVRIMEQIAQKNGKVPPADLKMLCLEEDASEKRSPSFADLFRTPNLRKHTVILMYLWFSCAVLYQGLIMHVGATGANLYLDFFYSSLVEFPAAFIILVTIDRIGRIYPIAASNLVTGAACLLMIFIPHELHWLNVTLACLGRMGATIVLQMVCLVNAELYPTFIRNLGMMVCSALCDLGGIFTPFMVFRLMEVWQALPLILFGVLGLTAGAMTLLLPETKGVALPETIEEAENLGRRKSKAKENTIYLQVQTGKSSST

[2] = target: T1, Solute carrier family 22 member 1
[3] = substrate: C[n+]1ccc(-c2ccccc2)cc1; assay: TP_TRANSPORTER: uptake in OCT1-expressing HEK293 cells; type: functional, cell-based
[4] = substrate: CNC(=O)c1cccnc1; assay: (§1) TP_TRANSPORTER: uptake in Xenopus laevis oocytes; type: functional, cell-based, Oocyte
[5] = substrate: C[n+]1ccc(-c2ccccc2)cc1; assay: as §1; type: functional, cell-based, Oocyte
[6] = substrate: C[N+](C)(C)CCO; assay: cells, lysate or membranes named
[7] = substrate: CC[N+](CC)(CC)CC; assay: cells, lysate or membranes named

Which IC50 [1] does the source give for `CCCCC[N+](CCCCC)(CCCCC)CCCCC` [TETRAPENTYLAMMONIUM] here?
The IC50 was 180 nM.

How did the IC50 [2] turn out when `CCCC[N+](CCCC)(CCCC)CCCC` [TETRABUTHYLAMMONIUM] was run?
The IC50 was 3000 nM.

B1: Solute carrier family 22 member 1 (Rattus norvegicus) (protein)
chain: T1 sequence (Q63089 whole entry)
How did the Km [3] turn out when B1 was run?
The Km was 9.4 µM.

What about the Km [4] of the same molecule?
Its Km is 126 µM.

And the Km [5]?
The Km was 2.7 µM.

And the Km [6]?
Its Km is 370 µM.

And the Km [7]?
Its Km is 129 µM.
